Test results taken from the supplement of paper PMC9732359.
± gives the uncertainty stated by the source.

Assay: protein stability index of a GFP-peptide fusion (yeast GPS) (PSI 1-4); higher = more stable; sorted into four equal gates, so the index is relative within each strain
Summary of the method: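 Mid-log yeast cultures in leucine-free medium, carrying a pooled plasmid library, were sorted into four equal gates by their GFP/Cherry fluorescence ratio. Each plasmid expressed Cherry along with GFP fused upstream of a tiled 17-residue yeast protein peptide. Plasmids recovered from each gate were PCR-amplified and Illumina-sequenced, with reads assigned to strains by barcodes. The protein stability index was obtained by summing each gate's read frequency weighted by its gate number.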

## INNLPPEKEASSATIVL [YCG1]
doa10∆
  protein stability index: 2.55 ± 0.16
pdr5∆
  protein stability index: 2.88 ± 0.14
san1∆
  protein stability index: 2.29 ± 0.19
ubr1∆
  protein stability index: 2.52 ± 0.073

## GSNVLKSGKTIVITSIT [RRP43]
doa10∆
  protein stability index: 1.72 ± 0.063
pdr5∆
  protein stability index: 2.57 ± 0.061
san1∆
  protein stability index: 2.41 ± 0.067
ubr1∆
  protein stability index: 2.33 ± 0.066

## SKEQIHGSIIILGMLSL [YCS4]
doa10∆
  protein stability index: 2.45 ± 0.053
pdr5∆
  protein stability index: 2.32 ± 0.05
san1∆
  protein stability index: 2.72 ± 0.049
ubr1∆
  protein stability index: 2.82 ± 0.045

## ETKSWINESAENFSNGI [MED1]
doa10∆
  protein stability index: 3.04 ± 0.062
pdr5∆
  protein stability index: 2.72 ± 0.047
san1∆
  protein stability index: 2.74 ± 0.056
ubr1∆
  protein stability index: 2.77 ± 0.042

## LFQTIEKLINNSDDCMM [ECM29]
doa10∆
  protein stability index: 3.1 ± 0.083
pdr5∆
  protein stability index: 2.92 ± 0.072
san1∆
  protein stability index: 3.09 ± 0.063
ubr1∆
  protein stability index: 3.03 ± 0.09

## AKQALDLYHFALNYENE [SNF2]
doa10∆
  protein stability index: 2.47 ± 0.098
pdr5∆
  protein stability index: 2.83 ± 0.084
san1∆
  protein stability index: 2.69 ± 0.095
ubr1∆
  protein stability index: 1.83 ± 0.1

## QIPTVSSPLGFEETKLS [SIR4]
doa10∆
  protein stability index: 3.06 ± 0.12
pdr5∆
  protein stability index: 3.05 ± 0.17
san1∆
  protein stability index: 2.63 ± 0.14
ubr1∆
  protein stability index: 2.9 ± 0.081

## YNILGNLGIPKIAYRGV [SSN2]
doa10∆
  protein stability index: 2.55 ± 0.12
pdr5∆
  protein stability index: 2.48 ± 0.12
san1∆
  protein stability index: 1.55 ± 0.25
ubr1∆
  protein stability index: 1.89 ± 0.1

## QFVPELKEFTAKLRKEL [FAS2]
doa10∆
  protein stability index: 1.53 ± 0.061
pdr5∆
  protein stability index: 1.61 ± 0.043
san1∆
  protein stability index: 1.53 ± 0.1
ubr1∆
  protein stability index: 1.57 ± 0.026

## LAELINMTTIADRNDDD [SRB6]
doa10∆
  protein stability index: 2.73 ± 0.066
pdr5∆
  protein stability index: 2.64 ± 0.078
san1∆
  protein stability index: 2.75 ± 0.062
ubr1∆
  protein stability index: 2.78 ± 0.076

## FQITLSSDDLQNCWSLI [SSN8]
doa10∆
  protein stability index: 2.11 ± 0.049
pdr5∆
  protein stability index: 2.33 ± 0.063
san1∆
  protein stability index: 2.22 ± 0.062
ubr1∆
  protein stability index: 1.91 ± 0.045

## GEEDADEEETAEGQTNS [RPN1]
doa10∆
  protein stability index: 3.26 ± 0.18
pdr5∆
  protein stability index: 3.16 ± 0.26
san1∆
  protein stability index: 3.01 ± 0.14

## KKKKKGSNQKPKYEPPV [RPT2]
doa10∆
  protein stability index: 2.94 ± 0.11
pdr5∆
  protein stability index: 2.96 ± 0.12
san1∆
  protein stability index: 2.38 ± 0.22
ubr1∆
  protein stability index: 3.12 ± 0.076

## VKYINFGKTVKDGPFYT [RPC31]
doa10∆
  protein stability index: 3 ± 0.1
pdr5∆
  protein stability index: 2.84 ± 0.085
san1∆
  protein stability index: 2.35 ± 0.061
ubr1∆
  protein stability index: 2.29 ± 0.044

## SLLLKNYLNDMHDSNLQ [SKP1]
doa10∆
  protein stability index: 2.31 ± 0.093
pdr5∆
  protein stability index: 2.48 ± 0.05
san1∆
  protein stability index: 1.81 ± 0.093
ubr1∆
  protein stability index: 2.08 ± 0.05

## VSKKWAAAAVCEKWAAS [RPL14A]
doa10∆
  protein stability index: 2.42 ± 0.083
pdr5∆
  protein stability index: 3.04 ± 0.15
san1∆
  protein stability index: 2.6 ± 0.094
ubr1∆
  protein stability index: 2.17 ± 0.077

## QKVSENFEAVFERLVPR [SMC3]
doa10∆
  protein stability index: 2.53 ± 0.28

## IPIAIVLKACGILSDLE [RET1]
doa10∆
  protein stability index: 1.4 ± 0.057
pdr5∆
  protein stability index: 1.43 ± 0.061
san1∆
  protein stability index: 1.36 ± 0.096
ubr1∆
  protein stability index: 2.02 ± 0.053

## KVVYIQRRSWRQYVGQL [DIS3]
pdr5∆
  protein stability index: 3.51 ± 0.17
san1∆
  protein stability index: 3.02 ± 0.12

## FMDETAVALAASDLVLI [SNU114]
doa10∆
  protein stability index: 2.55 ± 0.062
pdr5∆
  protein stability index: 2.74 ± 0.076
san1∆
  protein stability index: 2.69 ± 0.11
ubr1∆
  protein stability index: 2.21 ± 0.051

## ENCLNNDPEILKKIASI [SWI1]
doa10∆
  protein stability index: 2.48 ± 0.11
pdr5∆
  protein stability index: 2.08 ± 0.074
san1∆
  protein stability index: 2.48 ± 0.1
ubr1∆
  protein stability index: 2.71 ± 0.092

## MDFFNLNNNNNNNNTTT [SWI1]
doa10∆
  protein stability index: 2.97 ± 0.072
pdr5∆
  protein stability index: 3.33 ± 0.081
san1∆
  protein stability index: 2.53 ± 0.13
ubr1∆
  protein stability index: 2.35 ± 0.067

## AVQNESVSSPIELNFDA [QCR2]
doa10∆
  protein stability index: 2.95 ± 0.059
pdr5∆
  protein stability index: 2.95 ± 0.061
san1∆
  protein stability index: 2.86 ± 0.065
ubr1∆
  protein stability index: 3.06 ± 0.042

## SKIIVFPRNGKAPEAEQ [RPL13A]
doa10∆
  protein stability index: 3.19 ± 0.12
pdr5∆
  protein stability index: 3.09 ± 0.12
san1∆
  protein stability index: 3.06 ± 0.062
ubr1∆
  protein stability index: 2.98 ± 0.15

## DDVTCDKLSVSEISDGK [SIN4]
doa10∆
  protein stability index: 2.97 ± 0.073
pdr5∆
  protein stability index: 3.11 ± 0.078
san1∆
  protein stability index: 2.81 ± 0.08
ubr1∆
  protein stability index: 3.29 ± 0.058

## TFKSVSKYGMLLLRCDD [POP3]
doa10∆
  protein stability index: 1.89 ± 0.058
pdr5∆
  protein stability index: 2.01 ± 0.067
san1∆
  protein stability index: 1.96 ± 0.12
ubr1∆
  protein stability index: 1.72 ± 0.068

## DQFIRHVLRGVESPDKN [YCG1]
pdr5∆
  protein stability index: 3.77 ± 0.2
san1∆
  protein stability index: 3.18 ± 0.14

## RYKPKSHLWEIDIPLDE [RPC37]
doa10∆
  protein stability index: 2.81 ± 0.23
san1∆
  protein stability index: 3.03 ± 0.22

## LKRADYTAVDTAKLQMR [RPN14]
pdr5∆
  protein stability index: 3.33 ± 0.23
san1∆
  protein stability index: 2.76 ± 0.1

## EFLEDTSRTIVRNVKGP [RPS28A]
san1∆
  protein stability index: 3.15 ± 0.29
ubr1∆
  protein stability index: 3.03 ± 0.16

## KDLKDDSIYTKPVKVAL [YJL039C/NUP192]
doa10∆
  protein stability index: 2.81 ± 0.049
pdr5∆
  protein stability index: 2.98 ± 0.045
san1∆
  protein stability index: 2.73 ± 0.053
ubr1∆
  protein stability index: 3.02 ± 0.04

## ISRERDLFTHLWNQWLK [SRP68]
doa10∆
  protein stability index: 3.04 ± 0.12
pdr5∆
  protein stability index: 3.06 ± 0.12
san1∆
  protein stability index: 2.99 ± 0.055
ubr1∆
  protein stability index: 2.93 ± 0.11

## YGEYPPTKLLVSEVAKI [PRE8]
doa10∆
  protein stability index: 2.53 ± 0.084
pdr5∆
  protein stability index: 2.81 ± 0.13
san1∆
  protein stability index: 2.67 ± 0.12
ubr1∆
  protein stability index: 2.93 ± 0.078

## MKYVRETSGVTTALLKD [MED8]
doa10∆
  protein stability index: 2.72 ± 0.099
pdr5∆
  protein stability index: 3.31 ± 0.12
san1∆
  protein stability index: 3 ± 0.081
ubr1∆
  protein stability index: 2.21 ± 0.24

## ALEYIGAKVKTMRRQKL [RET1]
doa10∆
  protein stability index: 2.1 ± 0.069
pdr5∆
  protein stability index: 2.48 ± 0.097
san1∆
  protein stability index: 2.22 ± 0.089
ubr1∆
  protein stability index: 2.19 ± 0.066

## LKRNRIRNARSIRAEAV [POP1]
doa10∆
  protein stability index: 1.71 ± 0.15
pdr5∆
  protein stability index: 2.44 ± 0.1
ubr1∆
  protein stability index: 2.59 ± 0.13

## HKHALHGTAKALAAAKK [RPL29]
doa10∆
  protein stability index: 2.398 ± 0.023
pdr5∆
  protein stability index: 2.425 ± 0.02
san1∆
  protein stability index: 2.24 ± 0.023
ubr1∆
  protein stability index: 2.323 ± 0.018

## AADILCELQVETYGSME [RPN5]
doa10∆
  protein stability index: 3.15 ± 0.1
pdr5∆
  protein stability index: 3.34 ± 0.075
san1∆
  protein stability index: 3.27 ± 0.1
ubr1∆
  protein stability index: 3.18 ± 0.23

## IGIAGAHRVRDLMDEEL [SKI6]
doa10∆
  protein stability index: 3.38 ± 0.13
pdr5∆
  protein stability index: 3.36 ± 0.11
san1∆
  protein stability index: 2.94 ± 0.088
ubr1∆
  protein stability index: 3.07 ± 0.13

## NISKSRAKPVTNSSILL [RRP6]
doa10∆
  protein stability index: 2.14 ± 0.063
pdr5∆
  protein stability index: 2.23 ± 0.065
san1∆
  protein stability index: 2.23 ± 0.1
ubr1∆
  protein stability index: 2.38 ± 0.097

## KDVKARIAAGDGDDDDE [QCR9]
doa10∆
  protein stability index: 1.83 ± 0.13
pdr5∆
  protein stability index: 2.29 ± 0.19
san1∆
  protein stability index: 2.12 ± 0.074
ubr1∆
  protein stability index: 2.24 ± 0.12

## VSLGTSIMAVTFKDGVI [PRE3]
doa10∆
  protein stability index: 3.55 ± 0.12
pdr5∆
  protein stability index: 3.12 ± 0.18
san1∆
  protein stability index: 3.27 ± 0.075
ubr1∆
  protein stability index: 3.6 ± 0.074

## SRMRLIRQDVNLGRAVF [PRP8]
doa10∆
  protein stability index: 2.06 ± 0.085
pdr5∆
  protein stability index: 2.31 ± 0.061
san1∆
  protein stability index: 2.04 ± 0.084
ubr1∆
  protein stability index: 2.35 ± 0.054

## GNVIQFIYGEDGMDAAH [RPO21]
doa10∆
  protein stability index: 2.89 ± 0.065
pdr5∆
  protein stability index: 2.58 ± 0.06
san1∆
  protein stability index: 3.2 ± 0.063
ubr1∆
  protein stability index: 3.32 ± 0.042

## KKCIDFFEMLISKSLTF [RRI2]
doa10∆
  protein stability index: 2.13 ± 0.055
pdr5∆
  protein stability index: 2.13 ± 0.041
san1∆
  protein stability index: 1.96 ± 0.061
ubr1∆
  protein stability index: 2.27 ± 0.038

## TEEVEALLQRLKTNGKQ [MTW1]
ubr1∆
  protein stability index: 3.23 ± 0.21

## LPGTEKGRKTNKYANND [CSL4]
doa10∆
  protein stability index: 3.22 ± 0.12
pdr5∆
  protein stability index: 3.5 ± 0.13
san1∆
  protein stability index: 3.2 ± 0.072
ubr1∆
  protein stability index: 3.41 ± 0.19

## EQVKDDGTSTEKTFLHL [RPN8]
doa10∆
  protein stability index: 3.28 ± 0.12
pdr5∆
  protein stability index: 3.66 ± 0.13
san1∆
  protein stability index: 3.42 ± 0.05
ubr1∆
  protein stability index: 3.46 ± 0.082

## AKNEDDPAHSLNYTVIN [AAR2]
doa10∆
  protein stability index: 2.93 ± 0.2
pdr5∆
  protein stability index: 3.05 ± 0.18
san1∆
  protein stability index: 2.68 ± 0.11
ubr1∆
  protein stability index: 2.43 ± 0.18

## EDVDDEELDITPLFPID [IRR1]
doa10∆
  protein stability index: 2.99 ± 0.19
pdr5∆
  protein stability index: 3.36 ± 0.15
san1∆
  protein stability index: 3 ± 0.1
ubr1∆
  protein stability index: 2.95 ± 0.075
